Changes are numbered by the printed parent chain. In names and notes the source's numbering stands.
Columns and labels:
[1] = Serum pharmacokinetics of purified GLA variants in rats; type: in vivo, Sprague-Dawley rats; settings: rat, intravenous 1 mg/ml at 1 ml/kg; four hours post-administration
Experimental: Purified GLA variants produced as described in Example 4 were assessed for stability in the serum of live rats. WT GLA (SEQ ID NO:5) or SEQ ID NO:42 at 1 mg/ml were administered intravenously at 1 ml/kg to three naïve jugular vein cannulated Sprague-Dawley rats (7-8 weeks old) each. Prior to administration and at 5, 15, 30, 60, 120, and 240 minutes post-administration, […] was collected from each rat in an EDTA tube and centrifuged at 4° C. and 6000 rpm to generate >80 μL of serum per sample. Samples were frozen and stored on dry ice prior to analysis. For analysis, serum (10 μL) was added to 40 μL of 5 mM MUGal in McIlvaine buffer pH 4.4, and incubated at 37° C. for 1 h. Samples were quenched with 50 μL of 1 M sodium carbonate, diluted 1:100 in 1 M sodium carbonate and analyzed by fluorescence spectroscopy (Ex. 355, Em. 448). Four hours post-administration SEQ ID NO:42 retained 15.3% of maximal activity, while WT GLA retained only 0.66% (See, FIG. 9).

[2] = Thermostability of purified GLA variants (Sypro Orange melting); type: physicochemical; settings: purified enzyme 20 μg/ml in 1×PBS, 30 to 75° C. at 0.5° C./min
Experimental: (§1) GLA variants were purified from mammalian culture supernatant essentially as known in the art (See, Yasuda et al., Prot. Exp. Pur., 37, 499-506 [2004]). Concanavalin A resin (Sigma Aldrich) was equilibrated with 0.1 M sodium acetate, 0.1 M NaCl, 1 mM MgCl2, CaCl2, and MnCl2 pH 6.0 (Con A binding buffer). Supernatant was diluted 1:1 with binding buffer and loaded onto the column. The column was washed with 15 volumes of Concanavalin A binding buffer, and samples were eluted by the addition of Concanavalin A binding buffer including 0.9 M methyl-α-D-mannopyranoside and 0.9 M methyl-α-D-glucopyranoside. Eluted protein was concentrated and buffer exchanged three times using a Centricon® Plus-20 filtration unit with a 10 kDa molecular weight cut off (Millipore) into ThioGal binding buffer (25 mM citrate-phosphate, 0.1 M NaCl, pH 4.8). Buffer exchanged samples were loaded onto a Immobilized-D-galactose resin (Pierce) equilibrated with ThioGal binding buffer. The resin was washed with six volumes of ThioGal binding buffer and eluted with 25 mM citrate phosphate, 0.1 M NaCl, 0.1 M D-galactose, pH 5.5. […]
The thermostability of WT GLA (SEQ ID NO:5) and SEQ ID NO:42 were determined to assess their overall stability. […] The plates were heated from 30 to 75° C. at 0.5° C./min on a RT-PCR machine and Sypro Orange fluorescence was monitored. […]

[3] = Thermostability of GLA variants expressed in HEK293T cells; type: biochemical; settings: HEK293T supernatants; 30-54° C. for 1 h; residual MUGal activity
[4] = Activity on alternative substrate NBD-GB3 (TLC); type: biochemical; settings: HEK293T culture supernatant, pH 4.8, 37° C., 1 h
Experimental: To confirm that improved activity in MUGal hydrolysis corresponded to more native substrates, mammalian cell-expressed GLA variants were assayed using N-Dodecanoyl-NBD-ceramide trihexoside (NBD-GB3) as substrate. HEK293T culture supernatant (10 μL), 100 mM sodium citrate pH 4.8 (80 μL), and NBD-GB3 (0.1 mg/ml) in 10% ethanol (10 μL) were added to microcentrifuge tubes. Samples were inverted to mix, and incubated at 37° C. for 1 h. The reaction was quenched via addition of 50 μL, methanol, diluted with 100 μL, chloroform, vortexed and the organic layer was isolated for analysis. The organic phase (10 μL) was spotted onto a silica plate and analyzed by thin layer chromatography (chloroform:methanol:water, 100:42:6), detecting the starting material and product using a 365 nm UV lamp.

[5] = pH stability of purified GLA variants over time; type: biochemical; settings: purified enzyme; McIlvaine buffer pH 4.1 or 7.5, 0-24 h at 37° C.
Experimental: as §1, with “buffer.” for “buffer. The resin was washed with six volumes of ThioGal binding buffer and eluted with 25 mM citrate phosphate, 0.1 M NaCl, 0.1 M D-galactose, pH 5.5.”
To confirm that purified GLA variants show the desired pH stability observed after expression in yeast, WT GLA (SEQ ID NO:5) and SEQ ID NO:42 were incubated in acidic or basic buffers and analyzed for residual activity. […] Samples were quenched with 100 μL, of 1 M sodium carbonate, diluted 1:4 in 1 M sodium carbonate and analyzed by fluorescence spectroscopy (Ex. 355, Em. 448).

## WT GLA: wild-type mature human alpha galactosidase A (GLA), polypeptide sequence of SEQ ID NO: 5 [reference compound]
[1]
  GLA activity retained in serum, % of maximal activity: 0.66%
[2]
  melting temperature: 37 °C

B1: Variant 218: GLA variant; M322I/E367N/R373K relative to SEQ ID NO: 10 (protein)
chain: LDNGLARTPTMGWLHWERFMCNLDCQEEPDSCISEKLFMEMAELMVSEGWKDAGYEYLCIDDCWMAPQRDSEGRLQADPQRFPHGIRQLANYVHSKGLKLGIYADVGNKTCAGFPGSFGYYDIDAQTFADWGVDLLKFDGCYCDSLENLADGYKHMSLALNRTGRSIVYSCEWPLYMWPFQKPNYTEIRQYCNHWRNFADIDDSWASIKSILDWTSFNQERIVDVAGPGGWNDPDMLVIGNFGLSWNQQVTQMALWAIMAAPLFMSNDLRHISPQAKALLQDKDVIAINQDPLGKQGYQLRQGDNFEVWERPLSGLAWAVAIINRQEIGGPRSYTIAVASLGKGVACNPACFITQLLPVKRKLGFYNWTSRLKSHINPTGTVLLQLENTMQMSLKDLL
modifications: Synthetic Polypeptide sequence of Variant No. 218
[3]
  increase of Tm of the enzyme: 4 °C
[4]
  conversion of NBD-GB3: Significant conversion

B2: Variant 402: GLA variant; polypeptide sequence of SEQ ID NO: 42 (protein)
chain: B1 chain with L44R, S166P, F217R, N247D, Q302K, L316D, A337P, K362Q
modifications: Synthetic Polypeptide sequence of Variant No. 402
[1]
  GLA activity retained in serum, % of maximal activity: 15.3%
[2]
  melting temperature: 55 °C
[5]
  stability (residual activity) under acid and basic challenge compared to WT GLA: considerably more stable
